Where two headings read alike, the source gives them in different places.
Legend:
Raf-1 GST-RBD = biological target: T1, Raf-1 GST-RBD (Homo sapiens, UniProt P04049); test: Gel shift assay of binding to GST-RBD; conditions: 5% non-denaturing polyacrylamide gel
T1 construct: human Raf-1 RBD (amino acid residues 51-131); GST (N); made in house; host or cells: E. coli
Description: The product (XL) obtained by crosslinking reaction an equal concentration (0.1 μM) mixture of 9A(5Iy87) and Raf-1 RBD was purified from a gel and analyzed for binding between XL and GSTRBD by gel shift assay. As a control of RNA 9A dimer, RNA 9A molecules were also linked in tandem to newly prepare RNA 9A×2 (200 nucleotides in total length), followed by gel shift assay. RNA 9A×2 is an RNA molecule of 200 nucleotides in total length that has two essential regions of RNA 9A (residues 1-80) in its molecule. It was prepared by transcription reaction using T7 RNA polymerase (Epicentre) and subcloned into vector pCR®II-TOPO (Invitrogen).
Each RNA whose 5′-terminus was ^32P-labeled (0.8 pmol) was warmed in 20 μl Buffer A at 75° C. for 3 minutes and then allowed to stand at room temperature for 10 minutes or longer to form the secondary structure of RNA. […] Each aliquot was supplemented with 5 μl Raf-1 GST-RBD solution (containing, in addition to RBD, 160 μg/ml BSA, 1 mM DTT and 10% glycerol in Buffer A), incubated at 37° C. for 30 minutes, and then analyzed by electrophoresis on a 5% non-denaturing polyacrylamide gel (acrylamide:bisacrylamide=39:1). […]

T7 RNA polymerase = T7 RNA polymerase (Escherichia phage T7, UniProt P00573); conditions: for misincorporation: 5IyTP +; for 5Iyp (number of nucleotides in transcription product): transcribed with 0.25 mM 5IyTP (+), theoretical number in parentheses
Sequence of T7 RNA polymerase (P00573 whole entry): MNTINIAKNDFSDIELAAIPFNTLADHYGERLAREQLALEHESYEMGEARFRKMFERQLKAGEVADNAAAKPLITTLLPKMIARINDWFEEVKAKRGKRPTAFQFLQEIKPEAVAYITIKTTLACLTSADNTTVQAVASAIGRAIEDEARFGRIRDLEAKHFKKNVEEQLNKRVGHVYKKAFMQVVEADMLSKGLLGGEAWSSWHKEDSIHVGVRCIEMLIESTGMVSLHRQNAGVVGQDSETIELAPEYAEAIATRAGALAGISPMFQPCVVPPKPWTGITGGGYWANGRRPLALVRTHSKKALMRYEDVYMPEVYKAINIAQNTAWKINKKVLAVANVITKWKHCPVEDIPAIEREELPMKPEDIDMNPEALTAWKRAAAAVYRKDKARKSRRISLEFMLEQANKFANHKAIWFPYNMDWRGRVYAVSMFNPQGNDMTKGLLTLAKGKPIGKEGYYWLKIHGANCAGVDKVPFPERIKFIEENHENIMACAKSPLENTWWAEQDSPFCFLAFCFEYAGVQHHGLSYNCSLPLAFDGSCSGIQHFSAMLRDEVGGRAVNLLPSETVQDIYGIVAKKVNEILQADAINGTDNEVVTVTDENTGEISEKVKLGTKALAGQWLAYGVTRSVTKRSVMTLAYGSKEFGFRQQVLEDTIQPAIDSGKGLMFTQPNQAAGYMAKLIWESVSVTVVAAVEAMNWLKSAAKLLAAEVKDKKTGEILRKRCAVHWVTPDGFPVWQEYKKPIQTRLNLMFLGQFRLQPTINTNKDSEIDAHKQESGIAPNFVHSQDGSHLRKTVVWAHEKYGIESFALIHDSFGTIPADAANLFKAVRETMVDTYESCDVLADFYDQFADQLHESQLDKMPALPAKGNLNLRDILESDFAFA
Description: The reaction composition of T7 transcription may be the same as described in Ohtsuki et al., 2001. Details are as follows: 40 mM Tris-HCl (pH 8.0), 5 mM DTT, 24 mM MgCl2, 2 mM spermidine, 0.01% TritonX-100, 10 mM GMP, 1 mM NTPs, 0-0.25 mM 5IyTP, 0.2 μl/μl template DNA, and 2.5 U/μl T7 RNA polymerase (TaKaRa). After enzymatic reaction at 37° C. for 6 hours, each reaction product was purified by electrophoresis on an 8% polyacrylamide-7M urea gel.
When T7 transcription reaction is performed in the presence of [α-^32P]ATP or [α-^32P]GTP, a nucleoside 3′-phosphate (Np) 5′-terminal to A or G is labeled with ^32P. Each gel-purified RNA was completely digested into Np by RNase T2 (Sigma). If 5Iy is introduced at residue 84 or 92, the nucleoside 3′-phosphate of 5Iy (5IyTp) is labeled with ^32P via [α-^32P]GTP, while if 5Iy is introduced at residue 87, 5IyTp is labeled via [α-^32P]ATP (FIG. 5, FIG. 6-b). For base composition analysis of 5Iy-containing RNAs, each of the completely digested products was separated by 2D-TLC and determined for each nucleotide content.
More specifically, to completely digest RNA, 0.75 μl RNase T2 solution (5 units/μl; 100 mM NaOAc pH 4.5, 10% glycerol) was added to 4.25 μl aqueous solution containing the labeled RNA and a 0.25 OD E. coli-derived tRNA mixture (Sigma), followed by overnight enzymatic reaction at 37° C. A part of the reaction solution was spotted onto a 10 cm×10 cm TLC plate (Funacell SF; Funakoshi Co., Ltd., Japan) and developed in two dimensions. Developing solutions for the first and second dimensions are isobutyric acid/ammonia/water (66:1:33 by volume) and 2-propanol/hydrochloric acid/water (70:15:15 by volume), respectively. The developed spots were detected and quantified using a bioimaging analyzer (BAS2500, Fuji Photo Film Co., Ltd., Japan).
Each value was calculated from the following equation. The theoretical numbers of nucleotides are in parentheses.

[1] = biological target: B-Raf RBD/Ras interaction (Homo sapiens, UniProt P15056)
Sequence of B-Raf RBD/Ras interaction (P15056 149-226): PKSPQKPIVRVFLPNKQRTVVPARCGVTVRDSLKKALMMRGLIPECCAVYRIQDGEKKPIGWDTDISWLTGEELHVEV

[2] = test system: Ras-induced Raf-1 activation; test: Ras-induced Raf-1 activation in a cell-free system; assay type: biochemical; conditions: membrane fraction of Sf9 cells expressing Ras and Raf-1, cytoplasmic fraction of HEK293 cells
[3] = Filter binding % (filter binding method, Table 2); conditions: triplicate average, standard deviation in parentheses
Description: (§1) The binding efficiency to Raf-1 RBD was measured for each RNA by a filter binding method (Raf-1 RBD/RNA=300:5 nM). Standard deviations are in parentheses. ^a RNA 9A transcribed from s-free template DNA in the presence of 0.4 mM 5IUTP. ^b RNA 9A transcribed from s-free template DNA in the presence of 0.25 mM 5IyTP.

[4] = biological target: T2, Raf-1 RBD/Ras interaction (Homo sapiens, UniProt P04049); test: Inhibition of Raf-1 RBD/Ras interaction; assay type: biochemical; conditions: compared with aptamer from N60 pool
T2 construct: GST (N); made in house; host or cells: E. coli
Text: In this reference example, with the aim of designing a novel RNA molecule selectively regulating Ras/Raf-1 interaction in cellular signal transduction, RNA aptamers specifically binding to Raf-1 RBD were isolated by in vitro selection techniques. An RNA aptamer obtained from a pool containing random sequences of 60 nucleotides (N60) inhibited Raf-1 RBD/Ras interaction. […] In response to this, the selection technique was partially modified and used for selection on a pool containing newly designed RNA random sequences of 45 nucleotides (N45). The RT-PCR products were each subcloned into TA cloning vector pCR®II-TOPO using a TOPO TA Cloning Kit Dual (Invitrogen), and nucleotide sequences were determined for individual clones using a dRhodamine Terminator Cycle Sequencing Ready Reaction Kit (Applied Biosystems).

Raf-1 RBD = biological target: T3, Raf-1 RBD (Homo sapiens, UniProt P04049); test: Binding efficiency to Raf-1 RBD by filter binding method; conditions: Raf-1 RBD/RNA=300:5 nM; triplicate average, standard deviation in parentheses
T3 construct: human Raf-1 RBD (amino acid residues 51-131); GST (N); made in house; host or cells: E. coli
Description: In this example, to examine changes in binding activity to Raf-1 RBD, each RNA site-selectively introduced with 5Iy was measured for binding efficiency by a filter binding method (Table 2). […] This means that the inventive method for site-selective introduction of 5Iy is advantageous.
as §1
Each RNA whose 5′-terminus was ^32P -labeled was warmed in Buffer A at 75° C. for 3 minutes and then allowed to stand at room temperature for 10 minutes or longer to form the secondary structure of RNA. On the other hand, to prepare Raf-1 RBD, human Raf-1 RBD (amino acid residues 51-131) was expressed as a GST (glutathione transferase)-fusion protein in E. coli cells and purified from the supernatant of crushed cells by column chromatography. Rat RGL RBD (amino acid residues 632-734) [Koyama et al., 1996] and human B-Raf RBD (amino acid residues 149-226) were also expressed as GST-fusion proteins in E. coli cells and purified in the same manner.

B1: RNA 9A: anti-(Raf-1) RNA aptamer binding to Raf-1 RBD, 100 bases, SEQ ID NO: 1 (nucleic acid)
chain: GGGAGUGGAGGAAUUCAUCGAGGCAUAUGUCGACUCCGUCUUCCUUCAAACCAGUUAUAAAUUGGUUUUAGCAUAUGCCUUAGCGACAGCAAGCUUCUGC
modifications: chemistry not given here
- complex formation with GST-RBD (gel shift pattern) (Raf-1 GST-RBD): 1:1 complex
- misincorporation (T7 RNA polymerase; [α-32P]ATP label): 0.45%
- 5Iyp (number of nucleotides in transcription product) (T7 RNA polymerase; [α-32P]ATP label): 0.10(0)
- misincorporation (T7 RNA polymerase; [α-32P]GTP label): 0.41%
- 5Iyp (number of nucleotides in transcription product) (T7 RNA polymerase; [α-32P]GTP label): 0.09(0)
- inhibition of B-Raf RBD/Ras interaction [1]: did not inhibit
- inhibition of Ras-induced Raf-1 activation [2]: strongly inhibited
- Filter binding % [3]: 0.2 (0.1) %
- inhibitory capacity against Raf-1 RBD/Ras interaction [4]: higher inhibitory capacity
- Raf-1 RBD binding % (Raf-1 RBD): 25 (5) %
